Experimental data reported in patent publication US20030186441A1 (MORPHOTEK, published 2003).

Molecular target: T1, full length hMLH1 protein (human, UniProt P40692 2-756)
T1 construct: also called MLH1 (human)
T1 sequence: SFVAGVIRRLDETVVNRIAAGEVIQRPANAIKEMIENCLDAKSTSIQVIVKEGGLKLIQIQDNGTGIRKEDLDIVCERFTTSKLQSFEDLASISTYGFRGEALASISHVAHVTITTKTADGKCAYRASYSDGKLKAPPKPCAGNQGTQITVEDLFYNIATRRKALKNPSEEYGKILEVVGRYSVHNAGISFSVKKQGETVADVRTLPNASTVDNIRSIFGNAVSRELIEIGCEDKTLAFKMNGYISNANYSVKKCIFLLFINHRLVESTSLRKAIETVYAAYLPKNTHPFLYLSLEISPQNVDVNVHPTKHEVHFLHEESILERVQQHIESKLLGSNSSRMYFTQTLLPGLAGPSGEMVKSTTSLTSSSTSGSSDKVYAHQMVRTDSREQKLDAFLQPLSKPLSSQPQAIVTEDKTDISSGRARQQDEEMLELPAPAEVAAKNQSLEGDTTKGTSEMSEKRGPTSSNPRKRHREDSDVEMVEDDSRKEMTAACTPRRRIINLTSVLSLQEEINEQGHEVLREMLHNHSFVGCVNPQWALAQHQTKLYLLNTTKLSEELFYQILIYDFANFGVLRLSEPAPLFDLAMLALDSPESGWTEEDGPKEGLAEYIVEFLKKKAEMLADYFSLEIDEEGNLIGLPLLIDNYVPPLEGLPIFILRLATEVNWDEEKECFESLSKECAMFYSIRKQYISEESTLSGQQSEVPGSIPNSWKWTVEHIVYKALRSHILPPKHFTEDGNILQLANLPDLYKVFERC
Assay: co-immunoprecipitation of in vitro translated proteins with anti-hMLH1 mAb; converse experiment with N terminal hPMS2 antibody
From the text: […]. […] Lane 6 contains a nonprogrammed reticulocyte lysate. In both panels A and B, autoradiographs of immunoprecipitated products are shown. When a 35S labelled, full-length hMLH1 protein (FIG. 3A, lane 5) was mixed with the unlabelled carboxyl terminal hPMS2 polypeptide, a monoclonal antibody (mAb) to the carboxyl terminus of hPMS2 efficiently immunoprecipitated the labeled hMLH1 protein (lane 1). No hMLH1 protein was precipitated in the absence of hPMS2 (lane 2). Conversely, when the 35S labelled carboxyl terminus of hPMS2 (lane 3) was incubated with unlabelled, full length hMLH1 protein, an anti hMLH1 mAb precipitated the hPMS2 polypeptide (lane 4). In the absence of the unlabelled hMLH1 protein, no hPMS2 protein was precipitated by this mAb (lane 6).
Immunoprecipitation. Immunoprecipitations were performed on in vitro translated proteins by mixing the translation reactions with 1 μg of the MLH1 specific monoclonal antibody (mAB) MLH14 (Oncogene Science, Inc.), a polyclonal antibody generated to codons 2-20 of hPMS2 described above, or a polyclonal antibody generated to codons 843-862 of hPMS2 (Santa Cruz Biotechnology, Inc.) in […] of EBC buffer (50 mM Tris, pH 7.5, 0.1 M NaCl, 0.5% NP40). […]

B1: hPMS2-134 (containing codons 1-134 of hPMS2) (other)
chain: MERAESSSTEPAKAIKPIDRKSVHQICSGQVVLSLSTAVKELVENSLDAGATNIDLKLKDYGVDLIEVSDNGCGVEEENFEGLTLKHHTSKIQEFADLTQVETFGFRGEALSSLCALSDVTISTCHASAKVGTR
Does B1 bind?
Result: no binding
